Among the data in patent publication US20090029376 are activity (fidelity index) values, retold here.

What all share (assay): cleavage_in_vitro
The test system of data set [1] is T1, SspI-HF Y98F (Sphaerotilus species).
T1 sequence: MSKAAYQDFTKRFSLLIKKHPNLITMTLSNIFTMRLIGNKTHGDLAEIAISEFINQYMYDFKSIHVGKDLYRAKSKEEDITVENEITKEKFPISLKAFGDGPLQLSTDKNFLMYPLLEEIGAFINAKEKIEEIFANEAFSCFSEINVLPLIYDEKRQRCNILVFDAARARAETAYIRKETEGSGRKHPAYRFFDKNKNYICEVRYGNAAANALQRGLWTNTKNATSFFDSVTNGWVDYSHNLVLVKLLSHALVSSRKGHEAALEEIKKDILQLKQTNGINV
As to conditions: NEB4, 37 C.

Data set [2] deals with T2, NcoI-HF A2T/R31A (Nocardia corallina).
T2 sequence: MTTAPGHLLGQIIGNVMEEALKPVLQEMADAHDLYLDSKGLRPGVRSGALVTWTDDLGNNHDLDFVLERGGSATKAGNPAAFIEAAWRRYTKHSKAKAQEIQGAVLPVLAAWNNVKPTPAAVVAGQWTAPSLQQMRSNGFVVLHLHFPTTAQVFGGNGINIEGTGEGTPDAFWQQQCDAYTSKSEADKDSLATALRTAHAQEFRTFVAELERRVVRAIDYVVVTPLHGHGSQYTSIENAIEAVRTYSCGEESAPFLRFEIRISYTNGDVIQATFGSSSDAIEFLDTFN
As to conditions: NEB4, 37 C.

The target of data set [3] is EcoRI-HF K62E (Escherichia coli RY13) (UniProt P00642). To be noted: NEB4, 37 C.
Data set [4] deals with T3, SphI-HF K100A (Streptomyces phaeochromogenes).
T3 sequence: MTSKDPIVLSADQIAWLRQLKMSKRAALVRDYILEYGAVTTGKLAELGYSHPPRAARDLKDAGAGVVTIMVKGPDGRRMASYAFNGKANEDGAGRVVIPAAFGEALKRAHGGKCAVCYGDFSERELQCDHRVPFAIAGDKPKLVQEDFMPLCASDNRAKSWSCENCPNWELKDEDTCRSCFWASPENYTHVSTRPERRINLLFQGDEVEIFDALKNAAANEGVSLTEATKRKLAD
As to conditions: NEB4, 37 C.

Data set [5] has as its system T4, SbfI (Streptomyces species Bf-6).
T4 sequence: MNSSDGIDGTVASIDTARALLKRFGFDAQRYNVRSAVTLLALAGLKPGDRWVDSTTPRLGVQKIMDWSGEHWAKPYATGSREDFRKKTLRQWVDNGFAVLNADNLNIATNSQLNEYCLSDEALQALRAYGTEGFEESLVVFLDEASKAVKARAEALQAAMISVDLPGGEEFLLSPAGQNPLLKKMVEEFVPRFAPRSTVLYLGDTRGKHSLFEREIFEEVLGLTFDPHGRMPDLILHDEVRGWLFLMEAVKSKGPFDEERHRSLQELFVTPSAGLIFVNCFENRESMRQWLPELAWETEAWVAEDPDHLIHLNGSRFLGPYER
As to conditions: NEB4, 37 C.

The target of data set [6] is T5, PstI (Providencia stuartii 164) (UniProt P00640).
T5 sequence: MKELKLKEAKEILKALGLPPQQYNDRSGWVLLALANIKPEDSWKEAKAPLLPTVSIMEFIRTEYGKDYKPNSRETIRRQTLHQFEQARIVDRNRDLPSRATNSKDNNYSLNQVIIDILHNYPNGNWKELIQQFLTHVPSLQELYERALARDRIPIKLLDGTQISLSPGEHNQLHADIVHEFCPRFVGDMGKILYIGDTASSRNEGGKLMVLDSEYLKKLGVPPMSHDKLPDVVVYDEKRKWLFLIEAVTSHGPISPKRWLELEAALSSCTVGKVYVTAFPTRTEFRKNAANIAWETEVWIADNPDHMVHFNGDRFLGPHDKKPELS
As to conditions: NEB4, 37 C.

Data set [7] has as its system T6, BsmBI (Bacillus stearothermophilus).
T6 sequence: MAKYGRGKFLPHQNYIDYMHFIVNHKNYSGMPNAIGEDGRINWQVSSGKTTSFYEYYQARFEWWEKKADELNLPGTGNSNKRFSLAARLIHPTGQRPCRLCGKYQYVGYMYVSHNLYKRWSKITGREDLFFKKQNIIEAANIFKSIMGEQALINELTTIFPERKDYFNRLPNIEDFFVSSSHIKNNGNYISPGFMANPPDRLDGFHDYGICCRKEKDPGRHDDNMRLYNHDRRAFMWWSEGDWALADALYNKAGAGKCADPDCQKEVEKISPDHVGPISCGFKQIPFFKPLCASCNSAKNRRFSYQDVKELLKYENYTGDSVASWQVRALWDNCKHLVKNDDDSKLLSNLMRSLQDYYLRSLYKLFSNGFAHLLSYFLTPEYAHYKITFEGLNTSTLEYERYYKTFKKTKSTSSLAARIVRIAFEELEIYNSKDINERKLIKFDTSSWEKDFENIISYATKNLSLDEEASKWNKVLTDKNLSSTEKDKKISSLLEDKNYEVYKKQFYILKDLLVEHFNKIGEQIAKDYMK
To be noted: NEB4, 55 C.

For data set [8], the target named is T7, BamHI-HF E163A/E167T (Bacillus amyloliquefaciens) (UniProt P23940).
T7 sequence: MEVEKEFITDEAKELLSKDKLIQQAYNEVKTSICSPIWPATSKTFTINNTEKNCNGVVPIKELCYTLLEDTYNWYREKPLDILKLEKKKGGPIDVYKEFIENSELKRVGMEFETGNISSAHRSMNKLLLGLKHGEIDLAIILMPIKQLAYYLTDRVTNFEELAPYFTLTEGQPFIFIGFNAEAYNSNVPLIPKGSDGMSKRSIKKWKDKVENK
To be noted: NEB4, 37 C.

Data set [9] deals with EcoRI (Escherichia coli RY13) (UniProt P00642). To be noted: NEB4, 37 C.
Data set [10] concerns the target T8, ScaI-HF H193A/S201F (Streptomyces caespitosus) (UniProt O52691).
T8 sequence: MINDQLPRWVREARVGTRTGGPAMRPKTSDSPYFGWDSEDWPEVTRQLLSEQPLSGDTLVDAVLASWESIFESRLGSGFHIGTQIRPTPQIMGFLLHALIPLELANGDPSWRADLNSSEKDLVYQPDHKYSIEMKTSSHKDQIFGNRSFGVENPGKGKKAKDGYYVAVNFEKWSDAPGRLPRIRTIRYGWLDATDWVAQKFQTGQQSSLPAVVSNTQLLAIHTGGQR
As to conditions: NEB2, 37 C.

For lambda phage DNA, the activity (fidelity index) is 500 in data set [1]; more than 16000 in [2]; 16000 in [3]; more than 2000 in data set [4]; 8 in data set [5]; 8 in data set [6]. The activity (fidelity index) was 4 in data set [7], more than 4000 in [8], 4 in data set [9] and 120 in data set [10].
